Reference: publication PMC3858360
pKd: −log10 of the molar value.

Target: human Myo5a globular domain, Myo5a (1467–1855) (human) (UniProt Q9Y4I1)
Assay: SPR; Biacore 3000, 25°C; Myo5a GD covalently immobilised on a CM5 chip (50–100 RU); steady-state binding with a multi-injection protocol, HMM 0–413 nM; 20 mM MOPS-KOH pH 7.0, 0.1 M NaCl, 2 mM MgCl2, 0.5 mM EGTA, 10 µM Calmodulin, 1 mM TCEP

Chain of UniProt Q9Y4I1 (Q9Y4I1 1467-1855): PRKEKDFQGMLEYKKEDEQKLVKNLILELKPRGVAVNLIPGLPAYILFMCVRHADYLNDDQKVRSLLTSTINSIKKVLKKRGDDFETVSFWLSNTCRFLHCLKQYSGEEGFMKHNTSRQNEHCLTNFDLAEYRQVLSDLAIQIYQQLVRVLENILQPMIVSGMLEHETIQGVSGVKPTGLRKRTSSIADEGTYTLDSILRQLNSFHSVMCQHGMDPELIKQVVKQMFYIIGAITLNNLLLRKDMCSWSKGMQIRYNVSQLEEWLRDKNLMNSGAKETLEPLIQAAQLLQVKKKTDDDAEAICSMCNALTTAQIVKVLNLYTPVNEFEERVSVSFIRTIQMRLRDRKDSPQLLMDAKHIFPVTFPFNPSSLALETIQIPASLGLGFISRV

**Q.** “murine Myo5a HMM complex: Myo5a (1–1105) C-terminally fused to GCN4-Flag, coexpressed with essential light chains and calmodulins (from UniProt Q99104 1-1105; P0DP26 1-149)” was tested. Which pKd did it give?
**A.** Its pKd is 7.52.
